The record followed here is paper PMC549075, “HIV-1 Tat protein enhances Microtubule polymerization” (Retrovirology, 2005).

Test [1] has as its target Lamb brain tubulin (lamb). In words: cell-based or functional assay.
The target of test [2] is Lamb brain tubulin (lamb). In words: cell-based or functional assay. This is another data set of the same source.

B1: HIV-1 Tat protein, HxB2 strain (natural protein)
chain: MEPVDPRLEPWKHPGSQPKTACTNCYCKKCCFHCQVCFITKALGISYGRKKRRQRRRAHQNSQTHQASLSKQPTSQPRGDPTGPKE
For the molecule B1, the “fold increase of the turbidity plateau over tubulin alone, 4 μM and 8 μM Tat with 15 μM tubulin” value in the test with Lamb brain tubulin [1] stood at 3.7 fold. For the same molecule, in the test with Lamb brain tubulin [2], the “ΔOD ratio (plateau with 8 μM compound divided by plateau of tubulin alone)” value amounted to 3.31.
